In experiment [1] the target is CD20 on human cells (Daudi cells, B cells in PBMCs) (human) (UniProt P11836). Kind of experiment: cell-based or functional assay.
For experiment [2], the target named is Soluble single-chain human neonatal Fc receptor (scFcRn) (human) (UniProt P55899). Kind of experiment: SPR (Biacore X), scFcRn immobilized on CM5 chip, pH 6.0, two-state model; Run 3. A general note: In SPR one partner is held on a chip, and binding of the other changes the refractive index at the surface.
Sequence of Soluble single-chain human neonatal Fc receptor (scFcRn) (human) (P55899 24-297 limits assumed, chain 1 of 2): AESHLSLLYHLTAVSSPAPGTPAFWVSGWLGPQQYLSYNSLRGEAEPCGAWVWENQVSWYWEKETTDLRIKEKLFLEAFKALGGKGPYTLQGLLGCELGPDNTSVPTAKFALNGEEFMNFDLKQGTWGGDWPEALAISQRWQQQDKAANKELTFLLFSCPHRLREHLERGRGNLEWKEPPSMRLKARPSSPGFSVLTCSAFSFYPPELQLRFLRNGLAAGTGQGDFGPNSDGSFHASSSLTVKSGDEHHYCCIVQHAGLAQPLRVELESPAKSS
Sequence of Soluble single-chain human neonatal Fc receptor (scFcRn) (human) (P61769 21-119 limits assumed, chain 2 of 2, further chain): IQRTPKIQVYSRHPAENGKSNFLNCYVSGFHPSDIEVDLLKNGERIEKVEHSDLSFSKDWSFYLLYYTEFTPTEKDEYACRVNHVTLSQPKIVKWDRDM
The target is the same in experiment [3]. The experiment is described as follows: SPR (Biacore X), scFcRn immobilized on CM5 chip, pH 6.0, two-state model; Run 2.
Experiment [4] shares this target. Kind of experiment: SPR (Biacore X), scFcRn immobilized on CM5 chip, pH 6.0, two-state model; mean of 3 runs.
The target is the same in experiment [5]. The experiment is described as follows: SPR (Biacore X), scFcRn immobilized on CM5 chip, pH 6.0, two-state model; Run 1.
Experiment [6] has as its target CD22 on human cells (B cells in PBMCs, Daudi, D1-1) (human) (UniProt P20273). Kind of experiment: cell-based or functional assay.

As usually defined, the Kd is the equilibrium constant for the complex coming apart. A high value points to a looser complex.

Sequence of CD20 on human cells (Daudi cells, B cells in PBMCs) (human) (P11836 whole entry): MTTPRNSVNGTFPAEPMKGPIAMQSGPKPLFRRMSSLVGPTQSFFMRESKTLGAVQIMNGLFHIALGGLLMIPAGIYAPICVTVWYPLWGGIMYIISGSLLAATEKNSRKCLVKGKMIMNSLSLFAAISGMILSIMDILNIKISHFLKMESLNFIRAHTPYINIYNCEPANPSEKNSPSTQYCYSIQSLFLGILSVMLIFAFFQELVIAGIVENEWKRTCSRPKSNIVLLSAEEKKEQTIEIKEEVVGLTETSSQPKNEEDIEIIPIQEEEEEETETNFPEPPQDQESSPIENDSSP

As to “20*-2b (Ck-IgG-IFNα: veltuzumab with four IFNα2b fused at the light chains) (from UniProt P01563 24-188)”, the in vitro cytotoxicity in Daudi cells (MTS assay), EC50 in experiment [1] was 0.0002 nM.

In turn, “20-2b (Fc-IgG-IFNα: veltuzumab with four IFNα2b fused at the heavy chains) (from UniProt P01563 24-188)” came in with an in vitro cytotoxicity in Daudi cells (MTS assay), EC50 in experiment [1] of 0.0002 nM.

Turning to “Epratuzumab (humanized anti-CD22 IgG1) (antibody)”, the Kd in experiment [2] amounted to 15.8 nM; in experiment [3], 17.9 nM; in experiment [4], 16.3 nM; in experiment [5], 15 nM.

B1: F(ab')2 fragment of epratuzumab (protein, INN chains, looked up)
VH: QVQLVQSGAEVKKPGSSVKVSCKASGYTFTSYWLHWVRQAPGQGLEWIGYINPRNDYTEYNQNFKDKATITADESTNTAYMELSSLRSEDTAFYFCARRDITTFYWGQGTTVTVSS
VL: DIQLTQSPSSLSASVGDRVTMSCKSSQSVLYSANHKNYLAWYQQKPGKAPKLLIYWASTRESGVPSRFSGSGSGTDFTFTISSLQPEDIATYYCHQYLSSWTFGGGTKLEIK
modifications: F(ab')2
As to B1, the surface CD22 on B cells of PBMCs after treatment, % of isotype control MFI (flow cytometry) in experiment [6] was found to be 45 % control.

The record behind these values is patent US20160251444A1.
